Experimental findings from US20030215458A1 (published 2003) are described below.

T1 sequence (P01887 21-119): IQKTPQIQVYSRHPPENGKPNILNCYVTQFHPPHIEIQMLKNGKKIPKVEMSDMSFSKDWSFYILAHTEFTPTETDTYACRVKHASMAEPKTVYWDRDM

One assay has as its target T1, mouse B6 class I antigens (D^b or K^b molecules on the surface of RMA-S cells) (mouse, UniProt P01887 21-119). Description: binding of 9-mer peptides within p117-139 to mouse B6 (H-2^b) class I; RMA-S cell assay, flow cytometry.
As to PSQASSGQA [WT1 peptide P117-125 (PSQASSGQA)], the “Binding Affinity to Mouse MHC Class I (%)” value (“Binding Affinity … (%)” for short) stood at 2%. With FPNAPYLPS [WT1 peptide P128-136 (FPNAPYLPS)], the “Binding Affinity … (%)” value turned out to be 1%. For SQASSGQAR [WT1 peptide P118-126 (SQASSGQAR)], the “Binding Affinity … (%)” value came out at 2%. QARMFPNA [WT1 peptide P124-132 (printed QARMFPNA)]: the “Binding Affinity … (%)” value was 1%. On the same count and under the same terms, as for PNAPYLPSC [WT1 peptide P129-137 (PNAPYLPSC)], the figure is 1%; as for QASSGQARM [WT1 peptide P119-127 (QASSGQARM)], 2%. Still for that read-out and setting: as for NAPYLPSCL [WT1 peptide P130-138 (NAPYLPSCL)], the figure is 79%; as for APYLPSCLE [WT1 peptide P131-139 (APYLPSCLE)], 1%. For the molecule ASSGQARMF [WT1 peptide P120-128 (ASSGQARMF)], the “Binding Affinity … (%)” value is 1%.

On to MFPNAPYLP [WT1 peptide P127-135 (MFPNAPYLP)], for which the “Binding Affinity … (%)” value came to 2%. With SSGQARMFP [WT1 peptide P121-129 (SSGQARMFP)], the “Binding Affinity … (%)” value worked out at 1%. Turning to ARMFPNAPY [WT1 peptide P125-133 (ARMFPNAPY)], the “Binding Affinity … (%)” value was 1%.

A further assay deals with T1, mouse B6 class I antigens (D^b or K^b …). Kind of assay: RMA-S cells incubated with peptide (25 ug/ml), stained with FITC anti-D^b or anti-K^b, flow cytometry.
As to ALLPAVPSL (also called human p10-18) [WT1 peptide p10-18 human (ALLPAVPSL)], the “Binding Affinity to Mouse MHC Class I (% increase of D^b or K^b on RMA-S cells)” value is 2.2%. NLYQMTSQL [WT1 peptide p225-233 (NLYQMTSQL)]: the “Binding Affinity to Mouse MHC Class I (% increase of D^b or K^b on RMA-S cells)” value turned out to be 5.8%.

As to NQMNLGATL [WT1 peptide p239-247 (NQMNLGATL)], the “Binding Affinity to Mouse MHC Class I (% increase of D^b or K^b on RMA-S cells)” value was determined as 1%. On the same count and under the same terms, as for YSSDNLYQM [WT1 peptide p221-229 (YSSDNLYQM)], the figure is 0.8%. GCNKRYFKL [WT1 peptide p329-337 (GCNKRYFKL)]: the “Binding Affinity to Mouse MHC Class I (% increase of D^b or K^b on RMA-S cells)” value amounted to 1.2%. Same read-out and setting: the result for CMTWNQMNL [WT1 peptide p235-243 (CMTWNQMNL)] reads 33.6%; that for QMTSQLECM [WT1 peptide p228-236 (QMTSQLECM)], 1.2%. Take SCLESQPAI (also called human p136-144) [WT1 peptide p136-144 human (SCLESQPAI)]: the “Binding Affinity to Mouse MHC Class I (% increase of D^b or K^b on RMA-S cells)” value was 52%.
